Assay results: US20140370021A1 (Xencor, published 2014)

Molecular target: T1, extracellular region of human V158 FcγRIIIa fused with glutathione S-transferase (GST) (human, UniProt P08637 17-208)
T1 construct: extracellular domain; also called human Val158 FcγRIIIa; not shown: glutathione S-transferase (GST) tag
Assay: AlphaScreen competition as in Example 2 (biotinylated WT antibody on donor beads, GST-tagged human V158 FcγRIIIa on acceptor beads); Fc variants in the context of rituximab

T1 sequence (P08637 17-208 F176V): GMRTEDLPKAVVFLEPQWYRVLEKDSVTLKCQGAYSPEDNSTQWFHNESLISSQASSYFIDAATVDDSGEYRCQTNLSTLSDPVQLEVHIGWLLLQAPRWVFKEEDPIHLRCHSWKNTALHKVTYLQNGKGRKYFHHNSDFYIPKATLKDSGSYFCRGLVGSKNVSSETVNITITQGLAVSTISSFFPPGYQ

IC50 (read off the curve)	Binder
~5 nM	V264I (antibody, N297 glycan, not carried by the letters., also called rituximab V264I; copies: 2 + 2) heavy: not shown light: QIVLSQSPAILSASPGEKVTMTCRASSSVSYIHWFQQKPGSSPKPWIYATSNLASGVPVRFSGSGSGTSYSLTISRVEAEDAATYYCQQWTSNPPTFGGGTKLEIKRTVAAPSVFIFPPSDEQLKSGTASVVCLLNNFYPREAKVQWKVDNALQSGNSQESVTEQDSKDSTYSLSSTLTLSKADYEKHKVYACEVTHQGLSSPVTKSFNRGEC
~0.4 nM	rituximab V264I/I332E (antibody, human IgG1, kappa) heavy: not shown light: QIVLSQSPAILSASPGEKVTMTCRASSSVSYIHWFQQKPGSSPKPWIYATSNLASGVPVRFSGSGSGTSYSLTISRVEAEDAATYYCQQWTSNPPTFGGGTKLEIKRTVAAPSVFIFPPSDEQLKSGTASVVCLLNNFYPREAKVQWKVDNALQSGNSQESVTEQDSKDSTYSLSSTLTLSKADYEKHKVYACEVTHQGLSSPVTKSFNRGEC
